A value given as a limit tells only on which side of the number the result lay.

The text below walks through data of publication PMC11602657, “Nap1 and Kap114 co-chaperone H2A-H2B and facilitate targeted histone release in the nucleus” (The Journal of Cell Biology, 2024).

First the molecules themselves.
T1: Nap1 core (residues 75–365) (S. cerevisiae, UniProt P25293 75-365)
T1 chain: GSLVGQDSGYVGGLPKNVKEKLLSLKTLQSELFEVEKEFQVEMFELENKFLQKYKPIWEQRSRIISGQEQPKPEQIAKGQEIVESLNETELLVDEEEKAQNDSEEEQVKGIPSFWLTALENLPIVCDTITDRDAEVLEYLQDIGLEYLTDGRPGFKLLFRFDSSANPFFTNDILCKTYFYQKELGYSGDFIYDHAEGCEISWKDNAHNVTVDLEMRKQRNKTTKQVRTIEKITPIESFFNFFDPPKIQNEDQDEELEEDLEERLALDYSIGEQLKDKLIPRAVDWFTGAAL

T2: MBP-Kap114 (S. cerevisiae, UniProt P53067 1-1004)
T2 construct: TEV site between MBP and Kap114; pMalE modified with a His6-tag immediately N-terminal of MBP and a TEV site after MBP; held on amylose resin in the pull-downs; also called immobilized MBP-Kap114; iK; source: E. coli BL21 Gold, purified (amylose beads, HiTrap Q, SEC); not shown: MBP, N-terminal, kept
T2 sequence: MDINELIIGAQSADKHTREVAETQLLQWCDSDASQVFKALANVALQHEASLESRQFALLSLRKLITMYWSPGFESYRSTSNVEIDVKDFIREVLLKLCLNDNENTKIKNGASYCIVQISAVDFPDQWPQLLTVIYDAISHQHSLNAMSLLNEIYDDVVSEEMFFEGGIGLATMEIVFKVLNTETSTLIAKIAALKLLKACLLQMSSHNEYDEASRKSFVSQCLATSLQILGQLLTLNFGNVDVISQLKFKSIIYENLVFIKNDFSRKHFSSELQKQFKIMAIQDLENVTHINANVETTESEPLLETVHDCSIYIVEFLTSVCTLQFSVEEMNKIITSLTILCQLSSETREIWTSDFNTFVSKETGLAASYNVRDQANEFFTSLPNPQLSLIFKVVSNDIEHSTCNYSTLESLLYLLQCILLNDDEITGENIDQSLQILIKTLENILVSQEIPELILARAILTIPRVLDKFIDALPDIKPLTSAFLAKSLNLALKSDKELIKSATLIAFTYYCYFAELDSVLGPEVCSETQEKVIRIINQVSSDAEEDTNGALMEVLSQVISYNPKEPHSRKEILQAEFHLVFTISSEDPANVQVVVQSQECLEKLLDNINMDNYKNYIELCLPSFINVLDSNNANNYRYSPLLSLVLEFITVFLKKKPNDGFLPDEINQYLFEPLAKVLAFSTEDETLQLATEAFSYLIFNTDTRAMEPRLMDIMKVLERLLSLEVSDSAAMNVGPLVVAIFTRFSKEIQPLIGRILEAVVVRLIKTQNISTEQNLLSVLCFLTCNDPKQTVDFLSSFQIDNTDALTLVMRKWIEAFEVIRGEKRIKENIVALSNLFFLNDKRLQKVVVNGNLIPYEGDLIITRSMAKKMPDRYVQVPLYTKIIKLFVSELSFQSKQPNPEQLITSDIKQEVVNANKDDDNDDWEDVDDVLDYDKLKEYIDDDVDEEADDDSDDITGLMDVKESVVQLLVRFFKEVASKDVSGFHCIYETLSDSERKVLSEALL

B1: Kap114 (receptor, S. cerevisiae)
chain: T2 sequence
notes: also called Sc Kap114; source: E. coli, expressed as GST-Kap114, purified (Glutathione Sepharose 4B, on-column TEV cleavage, SEC)
B2: Nap1 α5/6mut (E194A/D201A/D205A) (natural protein, S. cerevisiae, UniProt P25293 1-417, looked up)
chain: MSDPIRTKPKSSMQIDNAPTPHNTPASVLNPSYLKNGNPVRAQAQEQDDKIGTINEEDILANQPLLLQSIQDRLGSLVGQDSGYVGGLPKNVKEKLLSLKTLQSELFEVEKEFQVEMFELENKFLQKYKPIWEQRSRIISGQEQPKPEQIAKGQEIVESLNETELLVDEEEKAQNDSEEEQVKGIPSFWLTALANLPIVAATITARDAEVLEYLQDIGLEYLTDGRPGFKLLFRFDSSANPFFTNDILAKTYFYQKELGYSGDFIYDHAEGAEISWKDNAHNVTVDLEMRKQRNKTTKQVRTIEKITPIESFFNFFDPPKIQNEDQDEELEEDLEERLALDYSIGEQLKDKLIPRAVDWFTGAALEFEFEEDEEEADEDEDEEEDDDHGLEDDDGESAEEQDDFAGRPEQAPECKQS
notes: also called mutant α5/6mut; source: E. coli BL21 gold, purified (Ni-NTA, TEV cleavage, HiTrap Q, Superdex S200)
B3: Nap1 core (residues 75–365), His tag removed (domain or fragment, S. cerevisiae, UniProt P25293 75-365, looked up)
chain: T1 chain
notes: Nap1 (nucleosome assembly protein 1), S. cerevisiae, core, residues 75–365; also called Nap1_(2) core; source: E. coli, purified (nickel-NTA, ion exchange, thrombin cleavage, SEC)
B4: Nap1 core (residues 75–365) (domain or fragment, S. cerevisiae, UniProt P25293 75-365, looked up)
chain: T1 chain
notes: Nap1 (nucleosome assembly protein 1), S. cerevisiae, core, residues 75–365; pET15b vector, gift from Karolin Luger; The His tag is said to be removed only for pull-down assays; also called His-Nap1 core; Nap1 core dimer; source: E. coli, purified (nickel-NTA, ion exchange, SEC)

Data set [1] deals with TBP (Saccharomyces cerevisiae) (UniProt P13393). As to conditions: cited from earlier work.
TBP (Saccharomyces cerevisiae), sequence (P13393 2-240): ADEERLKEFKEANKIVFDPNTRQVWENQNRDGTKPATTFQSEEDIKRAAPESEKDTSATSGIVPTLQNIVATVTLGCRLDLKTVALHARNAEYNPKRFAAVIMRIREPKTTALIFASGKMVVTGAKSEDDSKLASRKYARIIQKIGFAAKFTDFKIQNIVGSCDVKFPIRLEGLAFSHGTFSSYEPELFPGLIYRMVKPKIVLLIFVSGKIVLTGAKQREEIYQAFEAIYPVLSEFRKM
Data set [2] deals with B1. Put plainly: SEC-MALS; equimolar mixture of Kap114, Nap1_(2), H2A-H2B and Ran^GTP; Assay buffer without glycerol; Nap1 counted as dimer.
Data set [3] concerns the target Nap1 FL (C200A, C249A, C272A) (S. cerevisiae) (UniProt P25293). Described as above.
The target in data set [4] is B1. Description: SEC-MALS; 1:1:1 mixture of Kap114, Nap1_(2) and H2A-H2B (80 µM each), no Ran^GTP; Assay buffer without glycerol; Nap1 counted as dimer. (In gel filtration, larger molecules generally elute earlier.)
The target of data set [5] is Nap1 FL (C200A, C249A, C272A) (S. cerevisiae) (UniProt P25293). Described as above.
Data set [6] concerns the target T1, Nap1 core (residues 75–365). Put plainly: AUC.
For data set [7], the target named is B4. Put plainly: AUC; sedimentation velocity; Kap114 titrated into the Nap1 core dimer; isotherm with one-site model; 20 mM Tris-HCl pH 7.5, 150 mM NaCl, 2 mM MgCl2, 2 mM TCEP. To be noted: both partners purified.
The target of data set [8] is T2, MBP-Kap114. Description: pull-down; MBP-Kap114 (WT or mutant; or MBP alone) 1 µM immobilized on amylose resin, equimolar Nap1_(2) ± H2A-H2B (1 or 2 µM) ± Ran^GTP; Assay Buffer (20 mM HEPES pH 7.4, 150 mM NaCl, 2 mM MgCl2, 10% glycerol, 2 mM DTT), 30 min at 4°C; Coomassie-stained SDS-PAGE. As to conditions: both partners purified.
Data set [9] addresses B1. Put plainly: AUC; sedimentation velocity c(s) of Kap114, Nap1_(2) core and Ran^GTP alone and in mixtures at indicated molar ratios; 20 mM Tris-HCl pH 7.5, 150 mM NaCl, 2 mM MgCl2, 2 mM TCEP. To be noted: both partners purified.
Data set [10] concerns the molecule itself. Description: cryo-EM structure; Nap1 core dimer:H2A-H2B 1:2, then 1 molar ratio Kap114, 0.05% glutaraldehyde 1 min, SEC; no Ran^GTP; gave Nap1_(2), Kap114•H2A-H2B and two ternary assemblies.

Usually Kd stands for the equilibrium constant for the complex coming apart. Turning to Kap114 (from UniProt P53067), in data set [1], the Kd is under 1 nM.

In general, stoichiometry N refers to a count of units in the complex or per binding partner. For the molecule “Sc H2A-H2B (from UniProt P04911 2-124; P02293 5-131) (complex)”, the stoichiometry N in data set [2], in [3], in [4] and in [5] was 1 each time.

The molecule B1 returned a Kd in data set [6] of 1040 nM. In addition, in [7], the “stoichiometry N” value was 1.

In the case of B2, the binding result in data set [8] is listed as “binds”.

Consider B3, for which, in [8], the binding result was “binds”.

Consider B4, for which the binding result in [9] and in [10] was “binds” in each case.
